Reference: publication PMC10397247
Like-named read-outs stand apart in the source and are kept apart here. Blank lines part the entries; values can stand above or below the binder they belong to.

Key:
Assay in all cases: two-hybrid library CCmax;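 further: natural log of median RNA to DNA barcode read ratio; higher means stronger binding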
4H1064-AA = target: T1, 4H1064-AA
T1 chain: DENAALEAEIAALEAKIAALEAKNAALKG

4H1146-AA = target: T2, 4H1146-AA; conditions: mean of both orientations
T2 chain: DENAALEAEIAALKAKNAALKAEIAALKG

4H1391-AA = target: T3, 4H1391-AA; conditions: mean of both orientations
T3 chain: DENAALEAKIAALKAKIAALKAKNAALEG

4H1454-AA = target: T4, 4H1454-AA; conditions: mean of both orientations
T4 chain: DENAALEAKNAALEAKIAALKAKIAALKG

4H146-AA = target: T5, 4H146-AA; conditions: mean of both orientations
T5 chain: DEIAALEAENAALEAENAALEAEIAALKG

4H1913-AA = target: T6, 4H1913-AA; conditions: mean of both orientations
T6 chain: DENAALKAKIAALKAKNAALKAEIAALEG

4H3102-AA = target: T7, 4H3102-AA; conditions: mean of both orientations
T7 chain: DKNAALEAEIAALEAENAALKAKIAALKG

4H3446-AA = target: T8, 4H3446-AA; conditions: mean of both orientations
T8 chain: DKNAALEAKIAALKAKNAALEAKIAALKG

4H391-AA = target: T9, 4H391-AA; conditions: mean of both orientations
T9 chain: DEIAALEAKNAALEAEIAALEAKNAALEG

4H2705-AA = target: T10, 4H2705-AA; conditions: mean of both orientations
T10 chain: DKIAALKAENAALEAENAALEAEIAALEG

4H2736-AA = target: T11, 4H2736-AA; conditions: mean of both orientations
T11 chain: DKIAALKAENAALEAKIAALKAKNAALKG

4H510-AA = target: T12, 4H510-AA; conditions: mean of both orientations
T12 chain: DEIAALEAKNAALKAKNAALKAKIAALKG

P6-AA-12HAA-K = target: T13, P6-AA-12HAA-K; conditions: mean of both orientations
T13 chain: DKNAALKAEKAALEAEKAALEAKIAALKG

P6-AA-12HAA-S = target: T14, P6-AA-12HAA-S; conditions: mean of both orientations
T14 chain: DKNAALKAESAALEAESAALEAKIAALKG

4H4001-AA = target: T15, 4H4001-AA; conditions: mean of both orientations
T15 chain: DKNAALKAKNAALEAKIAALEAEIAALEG

4H807-AA = target: T16, 4H807-AA; conditions: mean of both orientations
T16 chain: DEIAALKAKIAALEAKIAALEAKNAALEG

4H953-AA = target: T17, 4H953-AA; conditions: mean of both orientations
T17 chain: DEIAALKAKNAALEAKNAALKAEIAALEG

APC4011-AA = target: T18, APC4011-AA; conditions: mean of both orientations
T18 chain: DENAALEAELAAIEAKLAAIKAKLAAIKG

4H2750-AA = target: T19, 4H2750-AA; conditions: mean of both orientations
T19 chain: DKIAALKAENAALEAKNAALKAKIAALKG

4H1153-AA = target: T20, 4H1153-AA
T20 chain: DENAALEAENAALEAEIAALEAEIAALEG

4H_APH2 = target: T21, 4H_APH2
T21 chain: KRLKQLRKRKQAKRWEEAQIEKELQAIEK

AP5-AA = target: T22, AP5-AA; conditions: mean of both orientations
T22 chain: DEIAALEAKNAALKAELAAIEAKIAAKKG

P6-AA-12HGe-R = target: T23, P6-AA-12HGe-R; conditions: mean of both orientations
T23 chain: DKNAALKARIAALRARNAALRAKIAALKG

P6-AA-12HGe-T = target: T24, P6-AA-12HGe-T; conditions: mean of both orientations
T24 chain: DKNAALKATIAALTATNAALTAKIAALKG

P6-AA-1HAA-T = target: T25, P6-AA-1HAA-T; conditions: mean of both orientations
T25 chain: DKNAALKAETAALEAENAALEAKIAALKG

P6-AA-1HGe-D = target: T26, P6-AA-1HGe-D; conditions: mean of both orientations
T26 chain: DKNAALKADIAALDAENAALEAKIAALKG

P6-AA-1HGe-H = target: T27, P6-AA-1HGe-H; conditions: mean of both orientations
T27 chain: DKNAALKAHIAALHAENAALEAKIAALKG

P6-AA-1HGe-S = target: T28, P6-AA-1HGe-S; conditions: mean of both orientations
T28 chain: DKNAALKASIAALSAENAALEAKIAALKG

zCON9_D = target: T29, zCON9_D; conditions: mean of both orientations
T29 chain: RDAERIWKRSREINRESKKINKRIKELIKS

4H2760-AA = target: T30, 4H2760-AA; conditions: mean of both orientations
T30 chain: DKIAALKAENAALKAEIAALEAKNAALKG

4H3094-AA = target: T31, 4H3094-AA; conditions: mean of both orientations
T31 chain: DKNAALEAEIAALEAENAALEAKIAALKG

4H963-AA = target: T32, 4H963-AA; conditions: mean of both orientations
T32 chain: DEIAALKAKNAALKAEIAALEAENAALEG

4H3134-AA = target: T33, 4H3134-AA; conditions: mean of both orientations
T33 chain: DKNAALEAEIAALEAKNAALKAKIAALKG

4H390-AA = target: T34, 4H390-AA; conditions: mean of both orientations
T34 chain: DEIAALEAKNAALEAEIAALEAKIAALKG

4H662-AA = target: T35, 4H662-AA; conditions: mean of both orientations
T35 chain: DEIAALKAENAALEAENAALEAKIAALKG

4H816-AA = target: T36, 4H816-AA; conditions: mean of both orientations
T36 chain: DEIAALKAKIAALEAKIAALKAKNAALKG

P5-AA-12HGe-E = target: T37, P5-AA-12HGe-E; conditions: mean of both orientations
T37 chain: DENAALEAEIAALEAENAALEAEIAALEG

P5-AA-12HGe-M = target: T38, P5-AA-12HGe-M; conditions: mean of both orientations
T38 chain: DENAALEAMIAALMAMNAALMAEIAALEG

P5-AA-12HGe-Q = target: T39, P5-AA-12HGe-Q; conditions: mean of both orientations
T39 chain: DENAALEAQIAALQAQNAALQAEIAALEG

P5-AA-1HAA-K = target: T40, P5-AA-1HAA-K; conditions: mean of both orientations
T40 chain: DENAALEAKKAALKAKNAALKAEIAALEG

P5-AA-1HGe-R = target: T41, P5-AA-1HGe-R; conditions: mean of both orientations
T41 chain: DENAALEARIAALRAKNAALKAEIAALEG

P5-AA-1HGe-T = target: T42, P5-AA-1HGe-T; conditions: mean of both orientations
T42 chain: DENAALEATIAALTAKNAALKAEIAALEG

Binder: DENAALEAEIAALEAKIAALEAKNAALKG [4H1064-AA]
interaction score (4H1064-AA): 0.0437
interaction score (4H1146-AA): -0.282
interaction score (4H1391-AA): 1.33
interaction score (4H1454-AA): 0.729
interaction score (4H146-AA): -1.5
interaction score (4H1913-AA): -0.972
interaction score (4H3102-AA): -1.27
interaction score (4H3446-AA): -1.11
interaction score (4H391-AA): -1.37

Binder: DENAALEAKIAALKAKIAALKAEIAALEG [4H1385-AA]
interaction score (4H2705-AA): -1.8
interaction score (4H2736-AA): -0.116
interaction score (4H510-AA): -1.54
interaction score (P6-AA-12HAA-K): 2.03
interaction score (P6-AA-12HAA-S): 1.43

Binder: DENAALEAENAALKAKIAALKAEIAALEG [4H1257-AA]
interaction score (4H1454-AA): -0.555
interaction score (4H1913-AA): -0.977
interaction score (4H2750-AA): -1.22
interaction score (4H4001-AA): -0.973
interaction score (4H953-AA): -1.45

Binder: DENAALEAEIAALKAKNAALEAKIAALKG [4H1142-AA]
interaction score (4H1153-AA; mean of both orientations): -1.39

Binder: DENAALEAENAALEAEIAALEAEIAALEG [4H1153-AA]
interaction score (4H1153-AA): -1.43

Binder: DEIAALEAENAALKAKNAALKAEIAALEG [4H249-AA]
interaction score (4H2760-AA): 1.68
interaction score (4H3094-AA): -0.0288
interaction score (4H963-AA): -1.65

Binder: DENAALEAKIAALKAEIAALEAKIAALKG [4H1350-AA]
interaction score (4H2705-AA): -1.8
interaction score (4H2736-AA): -1.22
interaction score (4H3134-AA): 0.186
interaction score (4H390-AA): 0.523
interaction score (4H510-AA): -1.17
interaction score (4H662-AA): -1.35
interaction score (4H816-AA): 1.16

Results, then the binder that gave them:

interaction score (4H4001-AA): -1.9
interaction score (4H807-AA): -1.58
interaction score (4H953-AA): -1.52
interaction score (APC4011-AA): -1.65
Binder: DENAALKAKIAALEAKNAALEAKIAALEG [4H1845-AA]

interaction score (4H_APH2): -2.35
interaction score (AP5-AA): -0.362
interaction score (P6-AA-12HGe-R): -1.02
interaction score (P6-AA-12HGe-T): 0.16
interaction score (P6-AA-1HAA-T): 1.96
interaction score (P6-AA-1HGe-D): 1.88
interaction score (P6-AA-1HGe-H): 1.77
interaction score (P6-AA-1HGe-S): 2.27
interaction score (zCON9_D): -1.37
Binder: DENAALEAKIAALKAKNAALKAEIAALEG [4H1401-AA]

interaction score (4H_APH2): -2.3
interaction score (AP5-AA): 2.26
interaction score (P5-AA-12HGe-E): 0.858
interaction score (P5-AA-12HGe-M): 1.77
interaction score (P5-AA-12HGe-Q): 1.98
interaction score (P5-AA-1HAA-K): 2.15
interaction score (P5-AA-1HGe-R): 2.23
interaction score (P5-AA-1HGe-T): 2.43
interaction score (zCON9_D): -1.76
Binder: DKNAALKAEIAALEAENAALEAKIAALKG [4H3606-AA]

interaction score (4H963-AA): -1.46
Binder: DENAALKAEIAALKAENAALKAEIAALKG [4H1626-AA]
